Data on 26 molecules can be found in US20230272088A1 (SYNTHEKINE, published 2023).

First the molecules themselves.
T1: extracellular domain of hIFNGR2 (human, UniProt P38484 28-247, conjugated to Alexa647 (site not stated))
T1 construct: also called hIFNGR2-ECD; human IFNGR2 ECD
T1 sequence: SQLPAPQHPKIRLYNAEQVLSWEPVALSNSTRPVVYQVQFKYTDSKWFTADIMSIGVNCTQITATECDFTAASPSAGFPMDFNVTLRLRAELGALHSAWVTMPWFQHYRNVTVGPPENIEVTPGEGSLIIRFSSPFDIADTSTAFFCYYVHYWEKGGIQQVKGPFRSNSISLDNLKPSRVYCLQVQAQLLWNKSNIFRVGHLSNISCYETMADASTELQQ

T2: extracellular domain of hIFNGR1 (human, UniProt P15260 18-245, conjugated to Alexa647 (site not stated))
T2 construct: UniProt P15260 residues 18-245; also called hIFNGR1-ECD; human IFNGR1 ECD
T2 sequence: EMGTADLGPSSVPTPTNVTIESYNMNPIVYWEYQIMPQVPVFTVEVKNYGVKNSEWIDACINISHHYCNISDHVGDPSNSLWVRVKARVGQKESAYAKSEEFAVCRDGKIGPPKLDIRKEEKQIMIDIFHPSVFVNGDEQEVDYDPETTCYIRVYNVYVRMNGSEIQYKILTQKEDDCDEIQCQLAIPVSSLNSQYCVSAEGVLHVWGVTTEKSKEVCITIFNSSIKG

B1: DR932 (VHH)
VHH: QVQLVESGGGLVQAGGFLRLSCAASGRTFSYTTIGWFRQAPGKEREFVAVISAGGGSRDYADALKGRFTISRDNAKKMVYLQMNNLKPEDTAVYYCAVRRNTDTYTTTGDYDYWGQGTQVTVSS
notes: also called anti-IFNGR2 sdAb VHH DR932
B2: DR943 (VHH)
VHH: QVQLVESGGGLVQAGGSLRLSCVASGRTVGYGMAWFRQAPGKQRDVVAAITWSGTSTYYPDSVKGRFTISRDNAKNTMYLQMSSLKPEDTAVYYCAAGSRRRVGVDVGGYDYWGQGTQVTVSS
notes: also called anti-IFNGR2 sdAb VHH DR943
B3: DR940 (VHH)
VHH: EVQLVESGGRLVQTGGSLRLSCAASGRTFSNYAMGWFRQAPGKEREFVAAISWYSGNTYYADSVKGRFTISRDNAKNTMYLQMNSLKPEDTAVYYCAANQIATMISVGDYWGQGTLVTVSS
notes: also called anti-IFNGR2 sdAb VHH DR940
B4: DR950 (VHH)
VHH: QVQLVESGGGLVQAGGSLRLSCAASGLTTSSAALAWFRQAPGKERELDPTITSGGGSTYYADSVKGRFTISKDNAKNTLYLQMSSLKPEDTAVYYCAARFYSTTYYYREHEYSDWGQGTQVTVSS
notes: also called anti-IFNGR2 sdAb VHH DR950
B5: DR937 (VHH)
VHH: QVQLVESGGGLVQPGGSLRLSCAASGRTFRSYSMGWFRQAPGKEREFVAAISWYSGTTYYADPVKGRFTISRDDAKNTLYLQMNSLKPEDTAVYYCAANEIATMESSNDYWGQGTQVTVSS
notes: also called anti-IFNGR2 sdAb VHH DR937
B6: DR936 (VHH)
VHH: EVQLVESGGGLVQAGGSLRLSCAASGRTFSSVAMAWFRQAPGKEREFVSAISSGGGSTDYADSVKGRFTISKDNAKNTMYLQMDSLKPEDTAVYYCAARDYSSRRYYQSRYEYDLWGLGTQVTVSS
notes: also called anti-IFNGR2 sdAb VHH DR936
B7: DR949 (VHH)
VHH: QVQLVESGGGLVQAGGSLRLSCAASESILRFNVMSWLRQAPGKQRELVAVITSGGSTNYADSVKGRFTISRDNAKNTVYLQMNSLKPEDTAVYYCAADESGQYYWGQGTQVTVSS
notes: also called anti-IFNGR2 sdAb VHH DR949
B8: DR941 (VHH)
VHH: QVQLVESGGGLVEAGGSLRLACAASGSIFRLNLMGWYRQAPGKQRELVAHVGTTGNTAYADSVKGRFTISKDDAKNMVFLQMNSLKPEDTAVYYCYADRWGQFSWGQGTQVTVSS
notes: also called anti-IFNGR2 sdAb VHH DR941
B9: DR933 (VHH)
VHH: QVQLVESGGGLVQPGDSLRLSCVASGGTISSLAMGWFRQAPGKEREFVAAISWSGRSTYYVDSVKGRFTISTDNAKNTVYLQMNSLKPEDTAVYYCVAGEDGHSEYDYWGQGTQVTVSS
notes: also called anti-IFNGR2 sdAb VHH DR933
B10: DR934 (VHH)
VHH: QVQLVESGGGLVQAGGSLRLSCAASGRSFANYAMGWFRQAPGKERETVAAISRGGGSTWYADSVKGRFTISKDNAKNTVYLQMNSLKPEDTAIYYCAARSYSGSYTYSFGEYDYWGQGTQVTVSS
notes: also called anti-IFNGR2 sdAb VHH DR934
B11: DR946 (VHH)
VHH: QVQLVESGGGLVQPGESLRLSCAASGPFTRYAMGWFRQAPGKEREFVAAISWSSGNTYYVDSVKGRFTISRDNAKNTMYLQMNSLKPEDTAVYYCAANEVATMSGPDDYWGQGTQVTVSS
notes: also called anti-IFNGR2 sdAb VHH DR946
B12: DR928 (VHH)
VHH: QVQLVESGGGLVQAGGSLRLSCAASGRTFSNYRMGWFRQAPGKEREFVAAISRGGGTTLYADSVKGRFTISRDNAKNTVDLQMNRLKPEDTAVYFCAAGDFSTTWDEYNYWGQGTQVTVSS
notes: also called anti-IFNGR2 sdAb VHH DR928
B13: DR952 (VHH)
VHH: QVQLVESGGGLVQAGGFLRLSCAASGRTFSSLAMAWFRQAPGKEREFVAAISRSGGSTDYADSVKGRFTISRDNAKSTLYLQMSSLKPEDTAVYYCAARDYSTLQYYNEYEYSDWGQGTLVTVSS
notes: also called anti-IFNGR2 sdAb VHH DR952
B14: DR938 (VHH)
VHH: QVQLVESGGGLVQPGGSLRLSCTASGRPRTTYAMGWFRQAPGKEREIVAAISKAGGSTYVADSAKGRFAISKDNAKNTVYLQMNSLKPEDTAVYYCAARAGFAAQIFEYDYWGQGTLVTVSS
notes: also called anti-IFNGR2 sdAb VHH DR938
B15: DR931 (VHH)
VHH: QVQLVESGGGLVQAGGSLLLSCAASGRTFSTYAMGWFRQAPGKERMFVAAISVNGGSTYYADSVTGRFTISRDNAKNTMYLQMNNLKPGDTAVYYCAARRPYPGSDFLTWASYDYRGQGTLVTVSS
notes: also called anti-IFNGR2 sdAb VHH DR931
B16: DR948 (VHH)
VHH: QVQLVESGGGLVQAGDSLRLSCVASGSIDSSYYVSWFRQAPGKERDLVAAINWGDSRTAYADSVKGRFTISRDNAKNTVYLQMHSLRPNDTAVYYCASRIGLGGPVVAAPTRYPYWGQGTLVTVSS
notes: also called anti-IFNGR2 sdAb VHH DR948
B17: DR930 (VHH)
VHH: EVQLVESGGGLVQAGGSLRLSCTVSGRTFSSYAVAWFRQAPGNVRELAAALSRGGGSAYYTDSVKGRFTISRDNAKNTVYLQMNSLKPEDTAVYYCAARNYDGTYYQENQYNYWGQGTQVTVSS
notes: also called anti-IFNGR2 sdAb VHH DR930
B18: DR939 (VHH)
VHH: EVQLVESGGGLVQAGGSMRLSCANSGRTFGTYAMGWFRQSPGKERERVASIDRDGSMSYYADSVKGRFTISGDNAKNTVYLQMNSLKPEDTAVYYCAASRRAVISLQTVDYWGQGTQVTVSS
notes: also called anti-IFNGR2 sdAb VHH DR939
B19: DR947 (VHH)
VHH: QVQLVESGGGLVQAGGSLRLSCAASGGSFGRYTMGWYRQAPGKEREFVAVISWSGTNTYYADSVKGRFTISRDNAKNTMYLQMNDLKPEDTAVYYCAARETYYSHWDERMEYDYWGQGTQVTVSS
notes: also called anti-IFNGR2 sdAb VHH DR947
B20: DR927 (VHH)
VHH: QVQLVESGGGLVQAGGSLRLSCAASGRTFTSYAMNWFRQAPGKEREFVAAISWSSGNTYVADSVKGRFAISRDKAKNTMYLQMNSLAPEDTAVYYCAATTIATMSDEYTYWGQGTQVTVSS
notes: also called anti-IFNGR2 sdAb VHH DR927
B21: DR935 (VHH)
VHH: QVQLVESGGGLVQAGGSLRLSCAASGRAFSTYALGWFRQAPGKEREFIAAISRGGGSTDYADSVKGRFTISRDNAKSTVYLQMNSLKPEDTAVYYCAARSYSSSYYYSQYEYDYWGQGTQVTVSS
notes: also called anti-IFNGR2 sdAb VHH DR935
B22: DR951 (VHH)
VHH: QVQLVESGGGLVQAGGSLRLSCAASGRTFGTSFGSLSMGWFRQAPGKEREFVAAISRNIGRTYYADSVKDRFTISRDNAKNTASLQMNSLEPEDTAVYNCAATNSYDDLRRSYAYDYWGQGTQVTVSS
notes: also called anti-IFNGR2 sdAb VHH DR951
B23: DR929 (VHH)
VHH: QVQLVESGGGLVQAGGSLRLSCVASGRTFSSYAMGWFRQTPGKEREFVSAISRGGGSTDYADSVKGRFTISRDNAKNTVYLQMNNLKSEDTAVYYCALRAYSGRYYQFLEYDYWGQGTQVTVSS
notes: also called anti-IFNGR2 sdAb VHH DR929
B24: DR919 (VHH)
VHH: EVQLVESGGGLVQPGGFLRLSCAASRRTLSTYAMGWFRQAPGKEREFVAAISWRSGNTYYADSVKGRFTISRDNAKNTMYLQMNSLKPEDTAVYYCAANEVATMSGPHDHWGQGTLVTVSS
notes: also called anti-IFNGR1 sdAb VHH DR919
B25: DR904 (VHH)
VHH: EVQLVESGGGLVQAGGSLRLSCEASESILSINTMGWFRQAPGKQRELVAAISSGGSTNYADSVKGRFTISRDNAKNTVYLQMNSLKPEDTAVYYCDADRAYYKGQGTQVTVSS
notes: also called anti-IFNGR1 sdAb VHH DR904
B26: DR921 (VHH)
VHH: QVQLVESGGGLVQAGDSLRLSCAASGRTFTFSTHNMGWFRQAPGKEREFVGGIMWTSRASYADSVKGRFTVSRDNAKNTVYLQMNSLKPEDTAVYYCAAAWYGNSGASYDYWGQGTQVTVSS
notes: also called anti-IFNGR1 sdAb VHH DR921

In the first assay the target is T1, extracellular domain of hIFNGR2. The assay is described as follows: flow cytometry, yeast-displayed VHH, 100 nM Alexa647-conjugated antigen. The method, then: (§1) Binding of individual VHH to human and murine antigen was tested by flow cytometry. Briefly, 2E5 yeast cells expressing a single sdAb clone were added to each well of a 96 well plate. The first plate was incubated with 100 nM of human antigen conjugated to Alexa647 whereas the second plate was incubated with 100 nM of murine antigen conjugated to Alexa647. Yeast cells were washed 3 times with PBS containing 1% bovine serum albumin. Yeast cells were analyzed using flow cytometry and clones showing a mean fluorescence intensity of greater than 1000 were considered as binding molecules. Specificity of sdAbs was confirmed by incubating yeast cells with a irrelevant protein conjugated to Alexa647. Positive clones were sequenced, and sequences analyzed to identify unique clonotypes.
Take B1: the binding result was “binds”.

As for B2, the binding result is on record as “binds”. For B3, the binding result is listed as “binds”.

As to B4, the binding result is given as “binds”.

B5: the binding result is given as “binds”. Still for that read-out and setting: as for B6, the entry is “binds”. Consider B7, for which the binding result is “binds”. With B8, the binding result is recorded as “binds”.

B9: the binding result is reported as “binds”. Turning to B10, the binding result was “binds”. Regarding B11, the binding result was “binds”. The same measure, in the same setting: as for B12, the entry is “binds”; as for B13, “binds”. Same read-out and setting: as for B14, the entry is “binds”.

Turning to B15, the binding result is listed as “binds”.

With B16, the binding result is “binds”. With B17, the binding result is on record as “binds”. For the molecule B18, the binding result is on record as “binds”. For the molecule B19, the binding result was “binds”. As for B20, the binding result is reported as “binds”. Same read-out and setting: then B21, with “binds”. As to B22, the binding result was “binds”. Regarding B23, the binding result is on record as “binds”.

Another assay concerns the target T2, extracellular domain of hIFNGR1. The assay is described as above. The method, then: as §1
Turning to B24, the binding result is “binds”. In the case of B25, the binding result is “binds”.

B26: the binding result was “binds”.
